From the supplement of paper PMC12667976
± gives the standard error.

B1: library; numbered along this chain (parent)
chain: MATDAALRRLLRLHRTEIAVAVDSAFPLLHALADHDVVPEDKFQETLHLKEKEGCPQAFHALLSWLLTQDSTAILDFWRVLFKDYNLERYGRLQPILDSFPKDVDLSQPRKGRKPPAVPKALVPPPRLPTKRKASEEARAAAPAALTPRGTASPGSQLKAKPPKKPESSAEQQRLPLGNGIQTMSASVQRAVAMSSGDVPGARGAVEGILIQQVFESGGSKKCIQVGGEFYTPSKFEDSGSGKNKARSSSGPKPLVRAKGAQGAAPGGGEARLGQQGSVPAPLALPSDPQLHQKNEDECAVCRDGGELICCDGCPRAFHLACLSPPLREIPSGTWRCSSCLQATVQEVQPRAEEPRPQEPPVETPLPPGLRSAGEEVRGPPGEPLAGMDTTLVYKHLPAPPSAAPLPGLDSSALHPLLCVGPEGQQNLAPGARCGVCGDGTDVLRCTHCAAAFHWRCHFPAGTSRPGTGLRCRSCSGDVTPAPVEGVLAPSPARLAPGPAKDDTASHEPALHRDDLESLLSEHTFDGILQWAIQSMARPAAPFPS

Variants of: B1
Assay: AIRE transcriptional activation functional score (insulin promoter-GFP; nonsense median 0, synonymous median 1) (normalised score); higher = higher AIRE activity (more reporter activation)
Conditions: with insulin promoter-GFP reporter in HEK293
Experimental: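 Deep mutational scan of full-length human AIRE (codon-optimized cDNA, DT-POPCode NNN libraries over three regions) integrated at a Bxb1 landing pad in HEK293 cells carrying an insulin core promoter-GFP reporter at a Flp-In site. Cells were sorted for the top 10% GFP about 14 days after transfection. Variant frequency log-ratios (select vs non-select, TileSeq) were rescaled so that the nonsense median is 0 and the synonymous median is 1, then averaged over biological replicates.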

Variant | AIRE transcriptional activation functional score
P56M | -0.903 ± 0.46
P56F | 0.968 ± 0.21
P56E | -1.9 ± 0.27
Y85W | -1.85 ± 0.26
Y85L | 0.211 ± 0.76
Y85P | -0.276 ± 0.62
A58W | 0.0998 ± 0.12
G431D | 0.852 ± 0.23
W455P | 1.3 ± 0.12
T147S | 0.771 ± 0.6
T147C | 0.358 ± 0.19
T147M | 1.19 ± 0.19
G208C | 0.43 ± 0.077
N427L | 1.51 ± 0.071
P490M | 0.144 ± 0.12
V192F | 0.922 ± 0.028
V192I | 1.13 ± 0.36
Q212C | 1.01 ± 0.12
L291G | 1.06 ± 0.14
D304G | 0.56 ± 0.29
P282F | 0.638 ± 0.14
P282H | 0.91 ± 0.075
G408F | 1.28 ± 0.18
G435A | 1.16 ± 0.3

Variant | AIRE transcriptional activation functional score
A140W | 1.46 ± 0.073
A140M | 0.337 ± 0.19
A261D | 0.731 ± 0.33
A261H | 0.579 ± 0.094
A73Y | 0.555 ± 0.91
G155R | 1.01 ± 0.47
D288F | 1.5 ± 0.13
C457L | -0.0524 ± 0.16
G267H | 1.38 ± 0.073
D503P | 0.73 ± 0.17
P163F | 0.944 ± 0.13
E383T | 1.49 ± 0.074
V362P | 0.988 ± 0.16
A343T | 1.13 ± 0.28
L255E | 0.58 ± 0.065
H292L | 0.55 ± 0.36
H292R | 0.856 ± 0.19
R9E | -0.057 ± 0.29
R9I | 0.0495 ± 0.27
I96W | -0.358 ± 0.16
I96N | 0.24 ± 0.24
Q293F | 1.1 ± 0.32
K52A | 1.01 ± 0.14
K52I | 0.794 ± 0.38

Variant | AIRE transcriptional activation functional score
K52W | -0.861 ± 0.18
V377P | 1.28 ± 0.077
A21T | -0.00846 ± 0.33
S535A | 1.1 ± 0.35
S535T | 0.745 ± 0.39
S506R | 0.768 ± 0.15
G197Q | 0.484 ± 0.34
L428I | 1.22 ± 0.31
L428S | 1.15 ± 0.15
A186C | 1.29 ± 0.13
A186F | -0.0353 ± 0.21
P380C | 0.499 ± 0.43
E229M | 0.122 ± 0.069
E229G | 1.15 ± 0.093
T151C | 0.915 ± 0.17
V37L | -0.0654 ± 0.45
Q173Y | 1.93 ± 0.35
L385D | -0.182 ± 0.081
L418M | 0.207 ± 0.085
L418P | 0.93 ± 0.25
L418I | 0.6 ± 0.24
T480G | 1.11 ± 0.26
T480H | 1.18 ± 0.072
T480P | 1.05 ± 0.32

Variant | AIRE transcriptional activation functional score
L93R | 0.0258 ± 0.41
N295V | 1.09 ± 0.33
P360N | 1 ± 0.14
L97A | -0.272 ± 0.34
V118R | 0.372 ± 0.4
V118S | 0.863 ± 0.49
T232Q | 1.38 ± 0.083
H507A | 0.96 ± 0.58
A413C | 1.42 ± 0.077
M194W | 0.214 ± 0.039
C475R | -0.148 ± 0.29
Q44M | -0.749 ± 0.2
D84P | 0.652 ± 0.47
D84E | 0.774 ± 0.23
P280I | 0.993 ± 0.099
Y231C | 0.601 ± 0.069
D238P | 1.5 ± 0.35
V301C | 1.08 ± 0.12
S195C | 0.945 ± 0.052
L29A | -0.0346 ± 0.34
K222G | 0.393 ± 0.26
K222W | -0.0951 ± 0.11
S185H | -0.313 ± 0.18
W65V | -0.0047 ± 0.31

Variant | AIRE transcriptional activation functional score
A373H | 1.23 ± 0.066
V393N | 1.09 ± 0.029
L444M | -0.874 ± 0.42
L11C | -0.106 ± 0.11
A500E | 0.98 ± 0.29
P101I | -0.0207 ± 0.17
P101M | 0.0755 ± 0.13
S220P | -0.127 ± 0.15
P252H | 0.544 ± 0.15
P252G | 0.0827 ± 0.056
L409R | 0.789 ± 0.21
L409M | 1.03 ± 0.035
G54S | -0.808 ± 0.76
G54L | -0.0223 ± 0.78
T68L | 0.729 ± 0.36
S332A | 0.774 ± 0.14
A5D | 0.947 ± 0.62
I211C | 0.481 ± 0.047
R89C | 0.253 ± 0.36
R15K | -1.95 ± 0.17
H415G | 0.474 ± 0.39
A264G | 1.29 ± 0.26
P148H | 0.972 ± 0.24
K221I | -0.82 ± 0.34

Variant | AIRE transcriptional activation functional score
K221L | 0.328 ± 0.21
F543L | 0.729 ± 0.15
F543M | 0.745 ± 0.12
A152Q | 0.894 ± 0.41
R149F | 0.857 ± 0.42
L158A | 0.834 ± 0.42
L158D | 0.772 ± 0.62
L158V | 0.815 ± 0.39
E207V | -0.0618 ± 0.09
Q275T | 1.11 ± 0.33
Q275E | 1.26 ± 0.19
I18S | 0.138 ± 0.48
Q426L | 1.06 ± 0.23
Q426N | 1.23 ± 0.043
Y90D | 0.18 ± 0.13
F459G | 0.834 ± 0.26
L519A | 0.739 ± 0.25
L519F | 0.808 ± 0.029
E423R | 0.409 ± 0.48
E423D | 1.25 ± 0.21
S71P | -0.532 ± 0.41
S71M | 0.472 ± 0.059
K111N | 1.36 ± 0.24
K111G | 0.901 ± 0.57

Variant | AIRE transcriptional activation functional score
R473H | -0.49 ± 0.25
G251H | 1.02 ± 0.059
G251V | 1.22 ± 0.28
G251P | -0.0792 ± 0.35
P326D | 0.439 ± 0.21
L7A | -0.112 ± 0.16
A386H | 1.44 ± 0.055
E45L | 0.233 ± 0.38
P483H | 1.13 ± 0.088
P483C | 1.44 ± 0.08
P126Y | -0.0102 ± 0.2
Q346T | 1.02 ± 0.21
Q346G | 1.13 ± 0.082
L210M | 0.6 ± 0.11
L210G | 0.615 ± 0.35
S107I | 1.02 ± 0.21
S107A | 1.04 ± 0.27
R471Y | 1.13 ± 0.23
S464K | 1.18 ± 0.19
P143F | 1.28 ± 0.05
L341E | 0.957 ± 0.14
C419R | 0.836 ± 0.18
C419H | 0.558 ± 0.21
